Measurements: article doi:10.1101/2020.02.02.931204

Molecular target: HA-SFPQ (human) (UniProt P23246)
Assay: co-IP

Chain of HA-SFPQ (human) (P23246 whole entry): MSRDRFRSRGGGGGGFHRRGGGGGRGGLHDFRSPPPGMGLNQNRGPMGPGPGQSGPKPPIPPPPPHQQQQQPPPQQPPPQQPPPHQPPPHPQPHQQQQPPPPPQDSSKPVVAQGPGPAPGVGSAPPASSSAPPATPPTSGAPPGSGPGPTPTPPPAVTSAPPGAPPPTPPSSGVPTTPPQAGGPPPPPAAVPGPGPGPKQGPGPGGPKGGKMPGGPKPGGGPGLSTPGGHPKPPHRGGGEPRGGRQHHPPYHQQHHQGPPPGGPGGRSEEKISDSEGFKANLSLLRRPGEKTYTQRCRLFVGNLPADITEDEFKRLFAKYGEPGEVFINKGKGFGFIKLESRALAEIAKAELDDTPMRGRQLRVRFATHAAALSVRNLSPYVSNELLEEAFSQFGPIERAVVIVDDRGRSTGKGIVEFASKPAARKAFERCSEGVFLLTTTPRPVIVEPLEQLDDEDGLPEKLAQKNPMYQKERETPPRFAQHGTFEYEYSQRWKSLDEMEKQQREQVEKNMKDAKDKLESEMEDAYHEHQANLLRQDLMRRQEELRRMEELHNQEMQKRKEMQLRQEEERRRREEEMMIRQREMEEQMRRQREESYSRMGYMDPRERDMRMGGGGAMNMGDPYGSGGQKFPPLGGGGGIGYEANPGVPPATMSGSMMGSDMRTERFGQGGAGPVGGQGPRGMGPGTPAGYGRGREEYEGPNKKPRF
Chain of Myc-KLC1 ΔTail (domain or fragment) (O88447 whole entry, stated change not applied, the tested form may be a part): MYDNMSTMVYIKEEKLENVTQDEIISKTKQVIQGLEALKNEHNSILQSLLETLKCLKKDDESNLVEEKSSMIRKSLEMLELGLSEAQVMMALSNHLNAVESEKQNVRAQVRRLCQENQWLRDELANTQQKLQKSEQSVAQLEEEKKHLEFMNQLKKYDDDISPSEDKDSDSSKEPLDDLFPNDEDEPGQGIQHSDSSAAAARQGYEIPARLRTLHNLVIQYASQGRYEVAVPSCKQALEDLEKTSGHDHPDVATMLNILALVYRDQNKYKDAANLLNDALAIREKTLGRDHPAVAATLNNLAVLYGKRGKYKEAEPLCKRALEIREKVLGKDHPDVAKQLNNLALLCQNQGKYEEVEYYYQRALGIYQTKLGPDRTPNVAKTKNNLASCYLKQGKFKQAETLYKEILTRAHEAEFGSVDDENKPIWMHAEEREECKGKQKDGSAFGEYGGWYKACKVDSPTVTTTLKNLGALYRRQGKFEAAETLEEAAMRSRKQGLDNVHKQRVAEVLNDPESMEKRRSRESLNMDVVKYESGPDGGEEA

- reduction of binding against WT KLC1: 50%
Substance: Myc-KLC1 ΔTail (domain or fragment)
